These results are taken from PMC11645250.

Like-named read-outs stand apart in the source and are kept apart here.

Data set [1] deals with IBDV VP3 D1–D2–D3 construct (residues 1–221) (infectious bursal disease virus (IBDV)). The data set can be described thus: cross-linking.
For data set [2] the target is unchanged. The data set can be described thus: SEC-MALS. A general note: In gel filtration, larger molecules generally elute earlier.
Data set [3] has the same target. The data set can be described thus: cross-linking. This is another data set of the same source.
The target is the same in data set [4]. The data set can be described thus: SAXS.
In data set [5] the target is IBDV VP3 N-terminal construct (residues 1–81, D1 domain) (infectious bursal disease virus (IBDV)). The data set can be described thus: cross-linking.
For data set [6] the target is unchanged. Description: SEC-MALS.
Data set [7] has the same target. Description: SAXS.
The target in data set [8] is IBDV VP3 central domains construct (residues 89–221, D2–D3) (infectious bursal disease virus (IBDV)). Description: cross-linking.
In data set [9] the target is T1, VP3 1-81 (D1) (Infectious bursal disease virus (Soroa …, UniProt Q9WI42 756-836)).
T1 sequence: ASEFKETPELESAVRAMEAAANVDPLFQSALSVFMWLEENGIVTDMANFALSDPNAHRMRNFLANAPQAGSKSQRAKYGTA
The data set can be described thus: EMSA.

The term stoichiometry N denotes the number of molecules, sites or subunits per partner or assembly.

For the molecule “IBDV VP3 D1–D2–D3 construct (residues 1–221) (domain or fragment)”, the % of protein in dimers and higher MW species after BS3 cross-linking in [1] stood at 93.2%; in [3] it was 93.3%. The % of total sample in the predominant (dimer) peak in [2] came to 98.8%. For the same molecule, the stoichiometry N in data set [2] and in [4] was 2 throughout.

Consider “IBDV VP3 N-terminal construct (residues 1–81, D1 domain) (domain or fragment)”, for which, in data set [5], the % of the band in the dimeric form after BS3 cross-linking was determined as 96.9%. The stoichiometry N in data set [6] and in data set [7] was 2 throughout.

The molecule “IBDV VP3 central domains construct (residues 89–221, D2–D3) (domain or fragment)” yielded a % dimerization/oligomerization after BS3 cross-linking in data set [8] of 43.5%.

B1: 28 bp dsRNA (dsRNA)
RNA 1: AGAACCUGUUGAACAAAAGCCGAAUAAU
RNA 2: AUUAUUCGGCUUUUGUUCAACAGGUUCU
B1: the binding result in data set [9] was “no binding”.
